Data: patent publication US20230293738A1 (Y MABS THERAPEUTICS, published 2023)
Where “and” joins values, the source holds several entries; their conditions need not be identical. Equal values may be shown once.

Experiments:
recombinant monkey B7-H3 = biological target: T1, recombinant monkey B7-H3 (monkey); experiment: SPR, triplicate
T1 chain: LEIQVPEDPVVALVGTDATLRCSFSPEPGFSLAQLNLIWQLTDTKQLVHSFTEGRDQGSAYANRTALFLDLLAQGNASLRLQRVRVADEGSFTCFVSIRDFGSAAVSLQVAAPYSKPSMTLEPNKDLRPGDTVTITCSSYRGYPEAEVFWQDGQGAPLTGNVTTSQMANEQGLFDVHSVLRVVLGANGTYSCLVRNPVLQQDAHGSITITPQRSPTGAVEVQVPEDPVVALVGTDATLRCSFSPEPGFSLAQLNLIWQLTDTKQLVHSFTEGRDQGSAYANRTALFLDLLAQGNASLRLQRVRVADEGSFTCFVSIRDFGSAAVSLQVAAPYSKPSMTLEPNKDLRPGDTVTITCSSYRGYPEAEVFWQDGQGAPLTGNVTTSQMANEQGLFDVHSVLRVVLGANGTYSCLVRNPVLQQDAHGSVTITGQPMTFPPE

[1] = biological target: T2, human 4Ig-B7H3 (B7H3-4Ig-His) (human, UniProt Q5ZPR3 29-466); experiment: SPR, Biacore T200, 4Ig-B7H3-His on CM5 chip, 1:1 fit
T2 construct: Recombinant His-tagged protein immobilised on a CM5 chip; also called 41g-B7H3; human 4Ig-B7-H3 (dominant isoform); not shown: His tag
T2 sequence: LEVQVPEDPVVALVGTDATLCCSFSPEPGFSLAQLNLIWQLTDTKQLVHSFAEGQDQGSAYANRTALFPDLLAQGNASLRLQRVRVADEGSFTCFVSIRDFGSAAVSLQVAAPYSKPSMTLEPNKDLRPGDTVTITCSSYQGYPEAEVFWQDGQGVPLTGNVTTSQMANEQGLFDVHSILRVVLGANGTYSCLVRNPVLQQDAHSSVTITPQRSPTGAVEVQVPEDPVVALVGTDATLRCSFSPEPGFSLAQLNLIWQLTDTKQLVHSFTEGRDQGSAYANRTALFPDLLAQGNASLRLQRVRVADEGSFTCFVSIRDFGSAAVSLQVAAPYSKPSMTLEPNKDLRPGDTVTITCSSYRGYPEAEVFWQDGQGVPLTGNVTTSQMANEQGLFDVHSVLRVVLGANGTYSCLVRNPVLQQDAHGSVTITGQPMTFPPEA
Procedure: (§1) Both human B7H3 41g and 21g proteins were dissolved in PBS (Phosphate-Buffered Saline) to make 0.1 mg/ml stock solution and stored in −80° C. B7-H3 proteins were immobilized onto the CM5 sensor chip using Amine Coupling Kit. Both proteins were diluted to 10 ug/ml with 10 mM Sodium acetate, pH 5.0. […] A blank immobilized surface was used as a control
(§2) Binding Assays: [0143] 1. Antibodies were diluted in HBS-EP buffer (10 mM HEPES, 150 mM NaCl, 3 mM EDTA, 0.05% Surfactant P20, pH 7.4) at varying concentrations (25-50-100-200-400 nM) prior to analysis. […] 2. Samples (60 ul) were injected over the sensor surface at a flow rate of 30 ul/min over 2 min. [0145] 3. Following completion of the association phase, dissociation was monitored in HBS-EP buffer for 10 min at the same flow rate. […] 4. At the end of each cycle, the surface was regenerated using 10 mM NaOH at a flow rate of 50 ul/min over 2×15 sec.

[2] = biological target: T3, human 2Ig-B7H3 (B7H3-2Ig-His) (human, UniProt Q5ZPR3 29-466); experiment: SPR, Biacore T200, 2Ig-B7H3-His on CM5 chip, 1:1 fit; * beyond fitting limits
T3 construct: Recombinant His-tagged protein immobilised on a CM5 chip; also called 21g-B7H3; B7H3-21g-His; not shown: His tag
T3 sequence: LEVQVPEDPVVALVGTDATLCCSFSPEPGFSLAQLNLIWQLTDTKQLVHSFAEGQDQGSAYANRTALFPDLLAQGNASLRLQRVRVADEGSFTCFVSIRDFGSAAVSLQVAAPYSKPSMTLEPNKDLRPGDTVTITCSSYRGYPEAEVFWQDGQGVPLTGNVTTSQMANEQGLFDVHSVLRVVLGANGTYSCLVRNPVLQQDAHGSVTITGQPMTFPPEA
Procedure: as §1, §2
The data were analyzed by the 1:1 fitting model and default parameter setting for the rate constants using the Biacore T200 Evaluation Software, and the apparent association on rate constant (kon, ka), dissociation off rate constant (koff, kd) and equilibrium dissociation constant (KD=kd/ka) were calculated.

[3] = biological target: T3, human 2Ig-B7H3 (B7H3-2Ig-His); experiment: SPR, Biacore T200, 2Ig-B7H3-His on CM5 chip, 1:1 fit; unconjugated 8H9, lot PHB800, Table 3 run
[4] = biological target: T3, human 2Ig-B7H3 (B7H3-2Ig-His); experiment: SPR, Biacore T200, 2Ig-B7H3-His on CM5 chip, 1:1 fit; * beyond fitting limits; unconjugated 8H9, lot S219, Table 5 run

Kd (recombinant monkey B7-H3): 0.0016 nM
koff (recombinant monkey B7-H3): 1e-05 s⁻¹
kon (recombinant monkey B7-H3): 6.5e+06 M⁻¹ s⁻¹
Kd [1]: 4.07 nM and 3.78 nM and 3.69 nM
koff [1]: 0.000102 s⁻¹ and 0.000101 s⁻¹ and 9.48e-05 s⁻¹
kon [1]: 25200 M⁻¹ s⁻¹ and 26700 M⁻¹ s⁻¹ and 25700 M⁻¹ s⁻¹
t ½ [1]: 1.88 h and 1.91 h and 2.03 h
koff [2]: 2.38e-07 s⁻¹ and 5.68e-07 s⁻¹
Kd [3]: < 0.23 nM
koff [4]: < 1e-05 s⁻¹
B1: 8H9 antibody comprising a light chain according to SEQ ID No.: 2 and heavy chain according to SEQ ID No.: 1 (antibody, mouse IgG1, kappa, V domains shown)
VH: QVQLQQSGAELVKPGASVKLSCKASGYTFTNYDINWVRQRPEQGLEWIGWIFPGDGSTQYNEKFKGKATLTTDTSSSTAYMQLSRLTSEDSAVYFCARQTTATWFAYWGQGTLVTVSA
VL: DIVMTQSPATLSVTPGDRVSLSCRASQSISDYLHWYQQKSHESPRLLIKYASQSISGIPSRFSGSGSGSDFTLSINSVEPEDVGVYYCQNGHSFPLTFGAGTKLELKR
notes: Unconjugated mouse IgG1 mAb; also called m8H9; murine 8H9
